Experiments:
[1] = target: Recombinant CDK2 (human, full length), biotinylated (human) (UniProt P24941); test: BLI; no drug; details: domain or fragment
[2] = target: Recombinant CDK2 (human, full length), biotinylated (human) (UniProt P24941); test: BLI; with 100 nM INX-315; details: domain or fragment

Kd [1]: 570 pM
koff [1]: 0.00011 s⁻¹
Kd [2]: 240 pM
koff [2]: 5e-05 s⁻¹
Substance: Recombinant cyclin A (human Cyclin A, residues 173-465)
